Read-outs that look alike come from different tables or passages of the source.
Experiments:
[1] = system: immobilized peptides containing an N-terminal amino acid of interest (XAKLDEESILKQK; XXKLDEESILKQK); assay: Biolayer interferometry screening of ClpS homologs; assay type: binding; conditions: for binding to isoleucine peptides, effect of penultimate amino acid: IR, IQ, IA peptides; for binding to valine peptides, effect of penultimate amino acid: VA, VR peptides
Protocol: The amino acid binding profile of each new homolog was evaluated by biolayer interferometry. ClpS proteins with known binding profiles (atClpS2-V1, atClpS1, and teClpS) were included as controls. In these assays, peptides containing an N-terminal amino acid of interest were immobilized on a biolayer interferometry sensor surface, allowed to bind to ClpS protein, and incubated in buffer to allow the ClpS molecules to dissociate. The binding response (nm) and dissociation off-rate (kdis, s^−1) were measured using a kinetic model. Measurements with each ClpS protein were carried out at 30° C. for the amino acids I, V, M, F. Y, and W, along with D, E, A, and R as negative controls. All peptides contained a penultimate alanine (A) and consisted of the sequence XAKLDEESILKQK (SEQ ID NO: 238).
Results from the biolayer interferometry screening of 61 ClpS homologs (58 new homologs, 3 reference homologs) are shown in FIG. 29B. Response (y-axis) is plotted against the inverse of dissociation rate for eight different dipeptides (data not shown for negative controls DA, AA, and RA). In these plots, higher values on the y-axis correspond to stronger association response and higher values on the x-axis indicate slower dissociation rates.
The effect of penultimate amino acids on isoleucine and valine binding by PS372 were evaluated by measuring binding to peptides with N-terminal IR, IQ, and VR by biolayer interferometry (peptide sequence: XXKLDEESILKQK (SEQ ID NO: 291)). Measurements were also obtained with teClpS for comparison.

[2] = system: peptides with different N-terminal amino acids, penultimate alanine; assay: Biolayer interferometry of multivalent amino acid binders; assay type: binding
Protocol: The amino acid binding profile of each Bis-atClpS2-V1 binder (PS609, PS610, and PS611) was evaluated by biolayer interferometry as described above. The monovalent atClpS2-V1 was run as a control. Measurements with each binder were carried out for the amino acids F, Y, and W, along with I, L, M, and V as negative controls. All peptides contained a penultimate alanine (A). Response curves for the tandem binders PS609, PS610, and PS611 are shown in FIGS. 35B, 35C, and 35D, respectively.
The multivalent binder PS612 is a polypeptide that contains tandem copies of two different ClpS protein monomers (atClpS2-V1 and PS372). The amino acid binding profile of PS612 was evaluated by biolayer interferometry as described above. The monovalent binders atClpS2-V1 and PS372 were separately run as controls.
The multivalent binder PS614 is a polypeptide that contains two copies of the ClpS binder PS372 oriented in tandem. The amino acid binding profile of PS614 was evaluated by biolayer interferometry as described above.
The multivalent binders PS637, PS638, and PS639 are polypeptides that each contain two copies of the ClpS binder PS557 oriented in tandem and separated by Linker 1, Linker 2, and Linker 3, respectively. The amino acid binding profiles of each binder was evaluated by biolayer interferometry as described above.

[3] = system: FITC-labeled peptide (XAKLDEESILKQK-FITC (SEQ ID NO: 238)); assay: Fluorescence polarization of ClpS:streptavidin complexes; assay type: binding; conditions: 30 minute incubation at 23° C.
Protocol: ClpS homologs were evaluated by fluorescence polarization to measure the interaction of a FITC-labeled peptide (XAKLDEESILKQK-FITC (SEQ ID NO: 238)) with ClpS:streptavidin complexes. Measurements of polarization response (millipolarization, mP) and total intensity for I, V, L, F, Y, and W were performed in a high-throughput 384-well plate format, using 480 nm excitation and 530 nm emission wavelength with readings collected after 30 minute incubation at 23° C. The results with in-solution binding validated that PS372 binds with leucine, isoleucine, and valine with strength of response in the order LA>IA>VA (FIG. 29E). Binding responses of atClpS2-V1 were FA>YA>WA, and those of teClpS were LA>FA>YA>WA.

[4] = system: LF, LA, IR, IA, VR, and VA peptides; assay: Binder-on-chip single-molecule assay (PS372); assay type: binding
Protocol: Binder-on-chip experiments were performed for PS372 with LF, LA, IR, IA, VR, and VA peptides to evaluate recognition by signal pulse detection in single-molecule assays. […] For comparison, the mean pulse width observed with the L-binder teClpS was 768 ms (˜37% shorter than PS372).

[5] = system: amino acid at a terminal position of a polypeptide; assay: Amino acid binding preference of recognition proteins (Tables 1 and 2); conditions: Table 1, ClpS proteins; amino acid identity at a terminal position of a polypeptide; inferred from literature and/or demonstrated by the inventors
Source text: It should be appreciated that these sequences and other examples described herein are meant to be non-limiting, and recognition molecules in accordance with the application can include any homologs, variants thereof, or fragments thereof minimally containing domains or subdomains responsible for peptide recognition.

[6] = system: N-terminal isoleucine peptide and N-terminal leucine peptide; assay: Peptide-on-chip recognition assay with labeled PS372; assay type: binding
[7] = system: N-terminal amino acids of peptides; assay: Single-molecule terminal amino acid recognition by labeled recognition molecule (dwell time analysis); assay type: binding; conditions: terminal leucine residue
Protocol: An adaptor protein involved in proteolytic pathways was identified as a potential candidate for use as a labeled recognition molecule for detecting N-terminal aromatic residues. The adaptor protein, ClpS2 from an α-proteobacterium (A. tumefaciens), was expressed and labeled at an exposed cysteine residue. […] The exposed cysteine residue was labeled with a rhodamine dye (ATTO 532).
Peptides having different N-terminal aromatic residues were prepared to test whether the labeled ClpS2 was capable of N-terminal amino acid discrimination at the single molecule level.
FIG. 19C is a plot showing discriminant pulse durations (time duration of signal peaks) among the three N-terminal residues when reversibly bound by labeled ClpS2. FIG. 19D is a plot showing discriminant interpulse durations (time duration between signal pulses) among the three N-terminal residues. […] Mean pulse duration for the different N-terminal residues is visualized by histograms (A)-(B) and layered histogram (C).

[8] = system: amino acid at a terminal position of a polypeptide; conditions: Table 2; amino acid identity at a terminal position (phosphotyrosine also internal); inferred from literature and/or demonstrated by the inventors; cited from earlier work
dye-labeled RL peptide = assay: Peptide-on-chip recognition assay for N-terminal arginine peptide; assay type: binding
Protocol: Peptide-on-chip recognition assays for N-terminal arginine peptide were performed with PS621 and PS528. Both PS528 and PS621 recognized N-terminal R, and binding to dye-labeled RL peptide at the single-molecule level was confirmed in these recognition assays, with average pulse width of approximately 60 ms.

[9] = system: immobilized peptides containing N-terminal R, K or H; assay: Biolayer interferometry of UBR-box domain homologs; assay type: binding
Protocol: The amino acid binding properties of UBR-box domain homologs were evaluated by biolayer interferometry. Peptides containing an N-terminal arginine (R), followed by different amino acids in the penultimate position, were immobilized on a biolayer interferometry sensor surface, allowed to bind to UBR-box protein, and incubated in buffer to allow the UBR-box molecules to dissociate. […] FIG. 32C is a heatmap showing results measured for 24 UBR-box homologs against 14 polypeptides containing N-terminal R followed by different amino acids in the penultimate position.
UBR proteins bind to the basic N-terminal residues R, K, and H as part of the conserved N-end rule pathway. To identify high-affinity UBR proteins with properties favorable for use in sequencing, a diverse panel of uncharacterized UBR-box domain homologs from 44 species (PS501-PS544) was designed. UBR-box domain homologs were expressed, purified, and evaluated for binding to N-terminal amino acids by biolayer interferometry. Measurements were carried out at 30° C. for each protein for R, K and H binding. The amino-acid binding profile of each new homolog was first evaluated by biolayer interferometry using a single-point screening assay. All peptides in this screen contained a penultimate alanine (A) and consisted of the sequence XAKLDEESILKQK (SEQ ID NO: 238), where X is R, K, or H.
To evaluate the effect of penultimate amino acids on arginine binding, UBR box-domain homologs were evaluated for binding to 14 different peptides with N-terminal RX (peptide sequence: RXGGGDDDFFK (SEQ ID NO: 241)). The selected RX dipeptides are the 14 most frequently found in the human proteome.

[10] = system: labeled peptide (XAKLDEESILKQK-FITC (SEQ ID NO: 238)); RA, KA, HA; assay: Single point fluorescence polarization assay of UBR-streptavidin complex; assay type: binding
Protocol: Single point fluorescence polarization assays were then performed for selected candidates. These assays measured the interaction of labeled peptide (XAKLDEESILKQK-FITC (SEQ ID NO: 238)) with UBR-streptavidin complex in a format in which these molecules are free in solution. Measurements of polarization response (millipolarization, mP) and total intensity for RA, KA, and HA peptides were performed.

N-terminal isoleucine peptide and N-terminal leucine peptide, sequence (P22629 25-183 partner, one chain of several): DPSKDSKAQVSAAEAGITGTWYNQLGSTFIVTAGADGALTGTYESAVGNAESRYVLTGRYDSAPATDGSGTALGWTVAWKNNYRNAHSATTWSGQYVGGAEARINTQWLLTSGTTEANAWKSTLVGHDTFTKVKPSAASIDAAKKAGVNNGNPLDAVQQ

B1: PS372: ClpS homolog binding leucine, isoleucine and valine, SEQ ID NO: 5 (protein)
chain: MAFPARGKTAPKNEVRRQPPYNVILLNDDDHTYRYVIEMLQKIFGFPPEKGFQIAEEVDRTGRVILLTTSKEHAELKQDQVHSYGPDPYLGRPCSGSMTCVIEPAV
amino acids bound (biolayer interferometry) ([1]; 30° C., penultimate alanine): binder of leucine, isoleucine, and valine | binding to the F, Y, or W peptides ([1]; 30° C., penultimate alanine): did not show binding | binding to isoleucine peptides, effect of penultimate amino acid [1]: binds IQ and IA with higher affinity relative to IR | binding to valine peptides, effect of penultimate amino acid [1]: binds well with VA and has negligible response with VR | N-terminal amino acids bound (biolayer interferometry) [2]: binds N-terminal I, L, and V | order of strength of polarization response [3]: LA>IA>VA | mean pulse width ([4]; IA peptide): 70 ms | mean pulse width ([4]; IR peptide): 83 ms | mean pulse width ([4]; LA peptide): 876 ms | mean pulse width ([4]; LF peptide): 1207 ms | Binding Pref. [5]: L, I, V

B2: dye-labeled PS372: PEGylated, biotinylated PS372 conjugated 1:1 with streptavidin and a biotinylated Cy3B-labeled oligonucleotide (conjugate)
chain: B1 chain
mean pulse width ([6]; N-terminal isoleucine peptide (IAALAAVAADDDW (SEQ ID NO: 239))): 78 ms | mean pulse width ([6]; N-terminal leucine peptide (LAAIAAFAADDDW (SEQ ID NO: 292))): 957 ms

B3: teClpS: ClpS protein, SEQ ID NO: 107 (protein, listed as Thermosynechococcus elongatus)
chain: MPQERQQVTRKHYPNYKVIVLNDDFNTFQHVAACLMKYIPNMTSDRAWELTNQVHYEGQAIVWVGPQEQAELYHEQLLRAGLTMAPLEPE
binding to isoleucine peptides, effect of penultimate amino acid [1]: minor response with very fast dissociation for IR peptide only | binding to valine peptides, effect of penultimate amino acid [1]: no response with V peptides | order of strength of polarization response [3]: LA>FA>YA>WA | mean pulse duration [7]: 0.71 s | mean pulse width ([4]; L-binder comparison, peptide not stated): 768 ms | Binding Pref. [5]: F, W, Y, L

B4: PS621: UBR-box domain homolog, SEQ ID NO: 181 (protein, listed as Kluyveromyces marxianus)
chain: MHSKFSHAGRICGAKFKVGEPIYRCKECSFDDTCVLCVNCFNPKDHTGHHVYTTICTEFNNGICDCGDKEAWNHTLFCKAEEG
Binding Pref. [8]: K, R, H | average pulse width (dye-labeled RL peptide): approximately 60 ms | binding range for RX dipeptides ([9]; 14 peptides RXGGGDDDFFK (SEQ ID NO: 241)): extensive binding range for RX dipeptides | binding to RA/KA/HA peptides (single-point screening) ([9]; 30° C., XAKLDEESILKQK): favorable binding characteristics with results that were similar to PS528 | polarization response with RA peptide [10]: bind to RA peptides with strong responses
